Laboratory results taken from patent US20100292083A1 (Ablynx, published 2010).

T1: human IL6R (human, UniProt P08887 20-358, limits assumed)
T1 construct: Antigen of the Biacore experiments; the construct is not described (biotinylated IL6R from Peprotech was used for the selections)
T1 sequence (looked up): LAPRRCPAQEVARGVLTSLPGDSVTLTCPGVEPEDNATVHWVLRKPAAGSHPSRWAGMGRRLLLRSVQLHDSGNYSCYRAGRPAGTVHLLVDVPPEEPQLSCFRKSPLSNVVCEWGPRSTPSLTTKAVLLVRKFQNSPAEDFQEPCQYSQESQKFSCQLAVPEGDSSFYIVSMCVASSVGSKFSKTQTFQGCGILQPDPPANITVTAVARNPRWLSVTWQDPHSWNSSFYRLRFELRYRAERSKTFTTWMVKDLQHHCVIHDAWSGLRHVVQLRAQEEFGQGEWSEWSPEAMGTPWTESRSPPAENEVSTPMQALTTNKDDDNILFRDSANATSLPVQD


target: T1, human IL6R; experiment: SPR (Biacore), periplasmic extract

| Binder | binding result |
| --- | --- |
| 32C9PMP2_C9 (VHH, name in Kabat numbering, Humanized 32C9 variant) VHH: EVQLVESGGGLVQAGGSLRLSCAASGFTFDDYDIGWFRQAPGKGREGVSGISSSDGNTYYADSVKGRFTISSDNAKNTLYLQMNSLKAEDTAVYYCAREPPDSSWYLDGSPEFFKYWGQGTLVTVSS | no binding |
| 32C9PMP1_A3 (VHH, name in Kabat numbering, Humanized 32C9 variant) VHH: EVQLVESGGGLVQAGGSLRLSCAASGFTFSDYDIGWVRQAPGKGREGVSGISSSDGNTYYADSVKGRFTISRDNAKNTVYLQMNSLKAEDTAVYYCAREPPDSSWYLDGSPEFFKYWGQGTQVTVSS | no binding |
| 32C9PMP1_H1 (VHH, name in Kabat numbering, Humanized 32C9 variant) VHH: EVQLVESGGGLVQPGGSLRLSCAASGFTFSDYDIGWVRQAPGKGREGVSGISSSDGNTYYADSVKGRFTISRDNAKNTVYLQMNSLKAEDTAVYYCAREPPDSSWYLDGSPEFFKYWGQGTQVTVSS | no binding |
| 32C9PMP1_B11 (VHH, name in Kabat numbering, Humanized 32C9 variant) VHH: EVQLVESGGGLVQAGGSLRLSCAASGFTFSDYDIGWFRQAPGKGREGVSGISSSDGNTYYADSVKGRFTISRDNAKNTVYLQMNSLKAEDTAVYYCAREPPDSSWYLDGSPEFFKYWGQGTQVTVSS | no binding |
| 32C9PMP2_B7 (VHH, name in Kabat numbering, Humanized 32C9 variant) VHH: EVQLVESGGGLVQAGGSLRLSCAASGFTFSDYDIGWFRQAPGKGREGVSGISSSDGNTYYADSVKGRFTISRDNAKNTLYLQMNSLKAEDTAVYYCAREPPDSSWYLDGSPEFFKYWGQGTLVTVSS | no binding |
| 32C9PMP1_H6 (VHH, name in Kabat numbering, Humanized 32C9 variant) VHH: EVQLVESGGGLVQPGGSLRLSCAASGFTFDDYDIGWFRQAPGKELEGVSGISSSDGNTYYADSVKGRFTISRDNAKNTLYLQMNSLKAEDTAVYYCAREPPDSSWYLDGSPEFFKYWGQGTQVTVSS | no binding |
| 32C9PMP2_C10 (VHH, name in Kabat numbering, Humanized 32C9 variant) VHH: EVQLVESGGGLVQPGGSLRLSCAASGFTFDDYDIGWVRQAPGKGREGVSGISSSDGNTYYADSVKGRFTISSDNAKNTLYLQMNSLKAEDTAVYYCAREPPDSSWYLDGSPEFFKYWGQGTLVTVSS | no binding |
| 32C9PMP1_A4 (VHH, name in Kabat numbering, Humanized 32C9 variant) VHH: EVQLVESGGGLVQPGGSLRLSCAASGFTFDDYDIGWFRQAPGKEREWVSGISSSDGNTYYADSVKGRFTISSDNAKNTLYLQMNSLRPEDTAVYYCAREPPDSSWYLDGSPEFFKYWGQGTQVTVSS | no binding |
| 32C9PMP1_D5 (VHH, name in Kabat numbering, Humanized 32C9 variant) VHH: EVQLVESGGGLVQPGGSLRLSCAASGFTFDDYDIGWVRQAPGKGREGVSGISSSDGNTYYADSVKGRFTISSDNAKNTLYLQMNSLRPEDTAVYYCAREPPDSSWYLDGSPEFFKYWGQGTLVTVSS | no binding |
| 32C9PMP1_D7 (VHH, name in Kabat numbering, Humanized 32C9 variant) VHH: EVQLVESGGGLVQPGGSLRLSCAASGFTFDDYDIGWVRQAPGKEREWVSGISSSDGNTYYADSVKGRFTISRDNAKNTLYLQMNSLKAEDTAVYYCAREPPDSSWYLDGSPEFFKYWGQGTLVTVSS | no binding |
| 32C9PMP1_A11 (VHH, name in Kabat numbering, Humanized 32C9 variant) VHH: EVQLVESGGGLVQPGGSLRLSCAASGFTFSDYDIGWVRQAPGKEREWVSGISSSDGNTYYADSVKGRFTISSDNAKNTVYLQMNSLKAEDTAVYYCAREPPDSSWYLDGSPEFFKYWGQGTLVTVSS | no binding |
| 32C9PMP1_F9 (VHH, name in Kabat numbering, Humanized 32C9 variant) VHH: EVQLVESGGGLVQPGGSLRLSCAASGFTFSDYDIGWFRQAPGKEREWVSGISSSDGNTYYADSVKGRFTISRDNAKNTVYLQMNSLKAEDTAVYYCAREPPDSSWYLDGSPEFFKYWGQGTLVTVSS | no binding |
| 32C9PMP2_A5 (VHH, name in Kabat numbering, Humanized 32C9 variant) VHH: EVQLVESGGGLVQPGGSLRLSCAASGFTFDDYDIGWVRQAPGKGREGVSGISSSDGNTYYADSVKGRFTISSDNAKNTVYLQMNSLRPEDTAVYYCAREPPDSSWYLDGSPEFFKYWGQGTLVTVSS | no binding |

Other lines, results leading:

| binding result | Binder |
| --- | --- |
| no binding | 32C9PMP2_A10 (VHH, name in Kabat numbering, Humanized 32C9 variant) VHH: EVQLVESGGGLVQAGGSLRLSCAASGFTFSDYDIGWVRQAPGKGREGVSGISSSDGNTYYADSVKGRFTISRDNAKNTLYLQMNSLKAEDTAVYYCAREPPDSSWYLDGSPEFFKYWGQGTQVTVSS |
| no binding | 32C9PMP1_A2 (VHH, name in Kabat numbering, Humanized 32C9 variant) VHH: EVQLVESGGGLVQPGGSLRLSCAASGFTFDDYDIGWVRQAPGKEREWVSGISSSDGNTYYADSVKGRFTISSDNAKNTVYLQMNSLKAEDTAVYYCAREPPDSSWYLDGSPEFFKYWGQGTLVTVSS |
| no binding | 32C9PMP1_B4 (VHH, name in Kabat numbering, Humanized 32C9 variant) VHH: EVQLVESGGGLVQPGGSLRLSCAASGFTFSDYDIGWFRQAPGKGREGVSGISSSDGNTYYADSVKGRFTISSDNAKNTLYLQMNSLKAEDTAVYYCAREPPDSSWYLDGSPEFFKYWGQGTQVTVSS |
| no binding | 32C9PMP1_H8 (VHH, name in Kabat numbering, Humanized 32C9 variant) VHH: EVQLVESGGGLVQAGGSLRLSCAASGFTFDDYDIGWVRQAPGKGREGVSGISSSDGNTYYADSVKGRFTISRDNAKNTLYLQMNSLRPEDTAVYYCAREPPDSSWYLDGSPEFFKYWGQGTLVTVSS |
| no binding | 32C9PMP2_C4 (VHH, name in Kabat numbering, Humanized 32C9 variant) VHH: EVQLVESGGGLVQAGGSLRLSCAASGFTFDDYDIGWFRQAPGKEREWVSGISSSDGNTYYADSVKGRFTISSDNAKNTVYLQMNSLKAEDTAVYYCAREPPDSSWYLDGSPEFFKYWGQGTLVTVSS |
| no binding | 32C9PMP1_G8 (VHH, name in Kabat numbering, Humanized 32C9 variant) VHH: EVQLVESGGGLVQPGGSLRLSCAASGFTFSDYDIGWFRQAPGKGREGVSGISSSDGNTYYADSVKGRFTISSDNAKNTVYLQMNSLKAEDTAVYYCAREPPDSSWYLDGSPEFFKYWGQGTLVTVSS |
| no binding | 32C9PMP2_B4 (VHH, name in Kabat numbering, Humanized 32C9 variant) VHH: EVQLVESGGGLVQPGGSLRLSCAASGFTFDDYDIGWFRQAPGKELEGVSGISSSDGNTYYADSVKGRFTISSDNAKNTVYLQMNSLRPEDTAVYYCAREPPDSSWYLDGSPEFFKYWGQGTQVTVSS |
| no binding | 32C9PMP1_G9 (VHH, name in Kabat numbering, Humanized 32C9 variant) VHH: EVQLVESGGGLVQPGGSLRLSCAASGFTFDDYDIGWVRQAPGKELEGVSGISSSDGNTYYADSVKGRFTISSDNAKNTVYLQMNSLKAEDTAVYYCAREPPDSSWYLDGSPEFFKYWGQGTLVTVSS |
| no binding | 32C9PMP1_E2 (VHH, name in Kabat numbering, Humanized 32C9 variant) VHH: EVQLVESGGGLVQAGGSLRLSCAASGFTFSDYDIGWVRQAPGKGREGVSGISSSDGNTYYADSVKGRFTISRDNAKNTLYLQMNSLKAEDTAVYYCAREPPDSSWYLDGSPEFFKYWGQGTLVTVSS |
| no binding | 32C9PMP1_G3 (VHH, name in Kabat numbering, Humanized 32C9 variant) VHH: EVQLVESGGGLVQPGGSLRLSCAASGFTFSDYDIGWFRQAPGKGREGVSGISSSDGNTYYADSVKGRFTISRDNAKNTLYLQMNSLRPEDTAVYYCAREPPDSSWYLDGSPEFFKYWGQGTQVTVSS |
